Reference: publication PMC5424161

Settings: O-GlcNAc at T241

| Substance | degradation_or_half_life | other |
| --- | --- | --- |
| YAP (Yes-associated protein): OGT knockdown (shRNA) | decreases | – |
| YAP (Yes-associated protein): T241A | decreases | increases |
